One block for each binder: values may come before it.
Target: Green Fluorescent Protein (GFP), biotinylated (biotin (EZ-Link NHS-PEG4-Biotin))
Test: BLI

binding result: binds
B1: Nb207 (VHH)
VHH: QVQLVESGGGLVQAGGSLRLSCAASGRTFSTAAMGWFRQAPGKERDFVAGIYWTVGSTYYADSAKGRFTISRDNAKNTVYLQMDSLKPEDTAVYYCAARRRGFTLAPTRANEYDYWGQGTQVTVSS

binding result: binds
B2: Nb394 (VHH)
VHH: QVQLVESGGGLVQAGGSLRLSCAASGRTFSVSNMGWFRQAPGKERVFVAAIGWTTGSTYYADSVKGRFTISRDNTKNTVYLQMNSLKPEDTAVYRCAARRRGYSRVPMTPDEYEYWGQGTQVTVSS

binding result: binds
B3: Nb395 (VHH)
VHH: QVQLVESGGGLVQTGDSLRLSCAASLRTFKSYAMGWFRQAPGKEREAVATISAEGDSTYYDDSVKGRFTISRDNAANTVYLQMNSLKPEDTAVYYCAASRFPYGLRLLQRRESDYWGQGTQVTVSS
